Test results: the supplement of paper PMC10567573

B1: EMD (parent)
chain: YQSKGYNDDYYEESYFTTRTYGEP
B2: S100A14 (parent)
chain: KIANLGSCNDSKLEFRSFWELIGE

Variants of: B1
Assay: protein stability index of a GFP-peptide fusion (GPS, HEK-293T) (PSI 1-6); higher = more stable
Conditions: c terminus: a fixed tail appended
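Further: lentivirally expressed fusions sorted by FACS into six bins by GFP to DsRed ratio, PSI derived from sequencing read proportions per bin multiplied by bin number.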

In order of falling protein stability index:
1. QQSKGYNDDYYEESYFTTRTYGEP [Y1Q]  4.15
2. GQSKGYNDDYYEESYFTTRTYGEP [Y1G]  3.8
3. YQSKGYNDDYYEESYDTTRTYGEP [F16D]  3.47
4. YQSKGTNDDYYEESYFTTRTYGEP [Y6T]  3.34
5. YQSDGYNDDYYEESYFTTRTYGEP [K4D]  3.33
6. IQSKGYNDDYYEESYFTTRTYGEP [Y1I]  3.2
7. YQSKGYNDDYYEESYHTTRTYGEP [F16H]  3.08
8. YQSKGYNDDYYEESNFTTRTYGEP [Y15N]  3.06
9. YQSKGGNDDYYEESYFTTRTYGEP [Y6G]  3.01
10. YQSKGYNDDYYEESQFTTRTYGEP [Y15Q]  2.91
11. YQSKGYNDDYYEESYFTTNTYGEP [R19N]  2.87
12. YQSKGHNDDYYEESYFTTRTYGEP [Y6H]  2.82
13. YQSKGYNDDVYEESYFTTRTYGEP [Y10V]  2.82
14. YQSKGYNDDYQEESYFTTRTYGEP [Y11Q]  2.8
15. YQSKGYNDDYYEESYFTTRTPGEP [Y21P]  2.76
16. YQSKGYNDWYYEESYFTTRTYGEP [D9W]  2.68
17. YQSKGYNDDYYEESKFTTRTYGEP [Y15K]  2.63
18. YQSKGYNDDYYEESVFTTRTYGEP [Y15V]  2.62
19. YQSKGYNDDYYEESYFTTPTYGEP [R19P]  2.53
20. YQSKGYNDDYMEESYFTTRTYGEP [Y11M]  2.51
21. YLSKGYNDDYYEESYFTTRTYGEP [Q2L]  2.5
22. YQSKQYNDDYYEESYFTTRTYGEP [G5Q]  2.48
23. YQSKGYNDDYYEESYFTTRTYNEP [G22N]  2.46
24. YQSKGYNDDYYEESYFTTKTYGEP [R19K]  2.46
25. YQQKGYNDDYYEESYFTTRTYGEP [S3Q]  2.43
26. YQSKGYNDDYYEDSYFTTRTYGEP [E13D]  2.42
27. YQSQGYNDDYYEESYFTTRTYGEP [K4Q]  2.39
28. YQMKGYNDDYYEESYFTTRTYGEP [S3M]  2.38
29. YQSKGYNDDYYEETYFTTRTYGEP [S14T]  2.38
30. YQSKGYNDDYYEESYFNTRTYGEP [T17N]  2.35
31. YQSSGYNDDYYEESYFTTRTYGEP [K4S]  2.3
32. YQSKGYNDDYYEESYFTTRTYGES [P24S]  2.29
33. YQSKGYNDDYYEESYFTTATYGEP [R19A]  2.29
34. YQSKGYNDDYYEESYFTTRTYGDP [E23D]  2.28
35. YQSKGYNDDYYEESYFTTRTYREP [G22R]  2.28
36. YQSKGYNDDYYEEYYFTTRTYGEP [S14Y]  2.28
37. YQSKGYNDDYYEESYFTTRTYPEP [G22P]  2.27
38. YQFKGYNDDYYEESYFTTRTYGEP [S3F]  2.25
39. YQSKGYNDDYYEESWFTTRTYGEP [Y15W]  2.24
40. YQSKGYNDDYYEESYFTTRFYGEP [T20F]  2.23
41. YQSKGYNDDYYEESYFTTRTYGHP [E23H]  2.19
42. YQSKGYNDDYKEESYFTTRTYGEP [Y11K]  2.19
43. YQSKGYNEDYYEESYFTTRTYGEP [D8E]  2.13
44. YQSKGYNDDYYEESYFVTRTYGEP [T17V]  2.13
45. YQSKGYNDDYYEESYFTTRTYGEE [P24E]  2.12
46. YCSKGYNDDYYEESYFTTRTYGEP [Q2C]  2.12
47. YQSKGYNDDYYEESYFTLRTYGEP [T18L]  2.11
48. YQSKGYNDDYYFESYFTTRTYGEP [E12F]  2.11
49. YQSKGYNDDYYEESYFTTFTYGEP [R19F]  2.11
50. YQSKGYNDDYYEESYFTTRTYAEP [G22A]  2.1
51. YQSKGYNDDYYEESYFTTRTYGEL [P24L]  2.1
52. YQSKGYNDDYYEESYFTTRTYGKP [E23K]  2.09
53. YQSKGYNDDYYEESYFTMRTYGEP [T18M]  2.04
54. YQSKGYNDDYYEESYFTWRTYGEP [T18W]  2.02
55. YQSKGYNDDYYEESYFTTRTYGGP [E23G]  2
56. YQSKGYNDDYYEGSYFTTRTYGEP [E13G]  2
57. FQSKGYNDDYYEESYFTTRTYGEP [Y1F]  1.97
58. YQSKGYNDDYYEESYFCTRTYGEP [T17C]  1.96
59. YQSKGYNDDYYNESYFTTRTYGEP [E12N]  1.95
60. YVSKGYNDDYYEESYFTTRTYGEP [Q2V]  1.9
61. YQSKGYNDDYYEESYFTPRTYGEP [T18P]  1.88
62. YQSKGYNDDYYEEAYFTTRTYGEP [S14A]  1.88
63. YQSKGYNDDYYEESYFTTRTYGEI [P24I]  1.86
64. YQSKGYNDVYYEESYFTTRTYGEP [D9V]  1.85
65. YQSKGYNDDYYEESYFTTRTYGEY [P24Y]  1.83
66. YQSKGYNDTYYEESYFTTRTYGEP [D9T]  1.79
67. YQSKGYNDYYYEESYFTTRTYGEP [D9Y]  1.79
68. YQSKGYNDDYYEESYFTTRTYGEW [P24W]  1.74
69. YQSKGYNDDYYRESYFTTRTYGEP [E12R]  1.73
70. YQSKGYNGDYYEESYFTTRTYGEP [D8G]  1.65
71. YQSKGYNDIYYEESYFTTRTYGEP [D9I]  1.57
72. YQSKGYNDDYYECSYFTTRTYGEP [E13C]  1.53
73. YQSKGYNDKYYEESYFTTRTYGEP [D9K]  1.52
74. YQSKGYNDDYYEESYFTTRTYGFP [E23F]  1.51
75. YQSKGYNDDYYEESYFTTRTYYEP [G22Y]  1.49

Variants of: B2
Assay: as above
Conditions: c terminus: a fixed tail appended

In order of falling protein stability index:
1. WIANLGSCNDSKLEFRSFWELIGE [K1W]  3.31
2. FIANLGSCNDSKLEFRSFWELIGE [K1F]  2.99
3. SIANLGSCNDSKLEFRSFWELIGE [K1S]  2.19
4. TIANLGSCNDSKLEFRSFWELIGE [K1T]  2.13
5. GIANLGSCNDSKLEFRSFWELIGE [K1G]  2.04
6. QIANLGSCNDSKLEFRSFWELIGE [K1Q]  2.02
7. AIANLGSCNDSKLEFRSFWELIGE [K1A]  1.98
8. PIANLGSCNDSKLEFRSFWELIGE [K1P]  1.95
9. CIANLGSCNDSKLEFRSFWELIGE [K1C]  1.92
10. DIANLGSCNDSKLEFRSFWELIGE [K1D]  1.86
11. EIANLGSCNDSKLEFRSFWELIGE [K1E]  1.84
12. IIANLGSCNDSKLEFRSFWELIGE [K1I]  1.79
13. KAANLGSCNDSKLEFRSFWELIGE [I2A]  1.77
14. HIANLGSCNDSKLEFRSFWELIGE [K1H]  1.61
15. MIANLGSCNDSKLEFRSFWELIGE [K1M]  1.59
16. RIANLGSCNDSKLEFRSFWELIGE [K1R]  1.59
17. NIANLGSCNDSKLEFRSFWELIGE [K1N]  1.41
18. KCANLGSCNDSKLEFRSFWELIGE [I2C]  1.22
19. LIANLGSCNDSKLEFRSFWELIGE [K1L]  1.15
